Measured values taken from patent publication US20210346432A1 (Memorial Sloan Kettering, published 2021).

Tests used:
mouse BCMA = target: T1, mouse BCMA (mouse, UniProt O88472 1-49, limits assumed); assay: ELISA (OD450), single point, coats human BCMA, mouse BCMA, blank
T1 chain (looked up): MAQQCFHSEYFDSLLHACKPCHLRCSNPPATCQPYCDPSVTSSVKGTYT

[1] = target: T2, A647 conjugated BCMA-Fc fusion protein (human, UniProt Q02223 1-54, A647 conjugated (site not stated)); assay: flow cytometry, A647 conjugated BCMA-Fc on CAR-transduced human T cells
T2 construct: Staining reagent for CAR on T cells; not shown: Fc part
T2 sequence: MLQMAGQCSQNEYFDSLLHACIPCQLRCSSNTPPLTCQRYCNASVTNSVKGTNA
Method: Human T cells (unselected (CD4 and CD8) human T cells from a healthy donor) were transduced with retrovirus in order to express each of these BCMA-targeted CARs such that the T cells expressed these BCMA-targeted 28z CARs. The cell surface expression of BCMA-targeted CARs on human T cells was determined via binding A647 conjugated BCMA-Fc fusion protein.

B1: ET140-204 (scFv)
scFv: QSALTQPASVSASPGQSIAISCTGTSSDVGWYQQHPGKAPKLMIYEDSKRPSGVSNRFSGSKSGNTASLTISGLQAEDEADYYCSSNTRSSTLVFGGGTKLTVLGSRGGGGSGGGGSGGGGSLEMAEVQLVQSGAEMKKPGASLKLSCKASGYTFIDYYVYWMRQAPGQGLESMGWINPNSGGTNYAQKFQGRVTMTRDTSISTAYMELSRLRSDDTAMYYCARSQRDGYMDYWGQGTLVTVSS
notes: also called ET140-204 scFv; ET140-54 scFv
binding result (mouse BCMA): no binding

B2: BCMA-targeted 28z CAR24 (other)
chain: SYELTQPPSASGTPGQRVTMSCSGTSSNIGSHSVNWYQQLPGTAPKLLIYTNNQRPSGVPDRFSGSKSGTSASLAISGLQSEDEADYYCAAWDGSLNGLVFGGGTKLTVLGSRGGGGSGGGGSGGGGSLEMAEVQLVQSGAEVKKPGESLKISCKGSGYSFTSYWIGWVRQMPGKGLEWMGIIYPGDSDTRYSPSFQGHVTISADKSISTAYLQWSSLKASDTAMYYCARYSGSFDNWGQGTLVTVSSIEVMYPPPYLDNEKSNGTIIHVKGKHLCPSPLFPGPSKPFWVLVVVGGVLACYSLLVTVAFIIFWVRSKRSRLLHSDYMNMTPRRPGPTRKHYQPYAPPRDFAAYRSRVKFSRSADAPAYQQGQNQLYNELNLGRREEYDVLDKRRGRDPEMGGKPRRKNPQEGLYNELQKDKMAEAYSEIGMKGERRRGKGHDGLYQGLSTATKDTYDALHMQALPPR
notes: Chimeric antigen receptor on transduced human T cells; leader left out; also called BCMA-specific 28z CAR24
binding result [1]: binds

B3: ET140-188 (scFv)
scFv: SYVLTQPPSASGTPGQRVTISCSGSSSNIGSNTVNWYQQVPGTAPKLLIYSNNQRPSGVPDRFSGSKSGASASLAISWLQSEDEADYYCAAWDDSLNGWVFGGGTKLTVLGSRGGGGSGGGGSGGGGSLEMAQMQLVQSGAEVKKPGASVKVSCKASGYTFTGYYVHWLRQAPGQGLEWMGWINPNSGGTNNAQEFQGRITMTRDTSINTAYMELSRLRSDDTAVYYCARSQWGGTYDYWGQGTLVTVSS
notes: also called ET140-188 scFv; ET140-38 scFv
binding result (mouse BCMA): no binding

B4: ET140-196 (scFv)
scFv: QAVLTQPPSASGTPGQRVTISCSGSSSNIGSYTVSWYQQLPGTAPKFLIYSNNQRPSGVPDRFSGSKSGTSASLAISGLQSEDEADYYCAAWDDSLNGYVFGTGTKVTVLGSRGGGGSGGGGSGGGGSLEMAEVQLVQSGAEVKKPGESLKISCKGSGYDFTTYWIGWVRQMPGKGLEWMGIIYPGDSDTRYSPSVRGRVTISADKSINTAYLQWSSLEASDTAMYYCARMWTFSQDGWGQGTLVTVSS
notes: also called ET140-196 scFv; ET140-46 scFv
binding result (mouse BCMA): no binding

B5: ET140-201 (scFv)
scFv: QPVLTQPPSASASLGASVTLTCTLSSGYSNYKVDWYQQRPGKGPRFVMRVGTGGIVGSKGDGIPDRFSVLGSGLNRYLTIKNIQEEDEGDYHCGADHGSGSNFVYVFGTGTKVTVLGSRGGGGSGGGGSGGGGSLEMAQVQLQESGPGLVKPSGTLSLTCGVSGGSISNSNWWSWVRQPPGKGLEWIGEIYHSGSTKYNPSLRSRVTISVDKSKNQFSLKLSSVTAADTAVYYCARRDNWKTPTTKIDGFDIWGQGTMVTVSS
notes: also called ET140-201 scFv; ET140-51 scFv
binding result (mouse BCMA): no binding

B6: ET140-207 (scFv)
scFv: QPVLTQPPSASASLGASVTLTCTLSSGYSNYKVDWYQQRPGKGPRFLMRVDTGGIVGSKGDGIPDRFSVSGSGLNRYLTIKNIQEEDESDYHCGADHGSGSNFVWVFGGGTKLTVLGSRGGGGSGGGGSGGGGSLEMAQVQLVQSGAEVKKPGSSVKVSCKASGGTFSSYAISWVRQAPGQGLEWMGGIIPIFSTANYAQKFQGRVTMTTDTSTSTAYMELRSLRSDDTAVYYCARQPWTWYSPYDQWGQGTLVTVSS
notes: also called ET140-207 scFv; ET140-57 scFv
binding result (mouse BCMA): no binding

B7: ET140-174 (scFv)
scFv: SYELTQPPSASGTPGQRVTMSCSGTSSNIGSHSVNWYQQLPGTAPKLLIYTNNQRPSGVPDRFSGSKSGTSASLAISGLQSEDEADYYCAAWDGSLNGLVFGGGTKLTVLGSRGGGGSGGGGSGGGGSLEMAEVQLVQSGAEVKKPGESLKISCKGSGYSFTSYWIGWVRQMPGKGLEWMGIIYPGDSDTRYSPSFQGHVTISADKSISTAYLQWSSLKASDTAMYYCARYSGSFDNWGQGTLVTVSS
notes: also called ET140-174 scFv; ET140-24 scFv
binding result (mouse BCMA): no binding

B8: ET140-172 (scFv)
scFv: QSVVTQPPSVSGAPGQRVTISCSGSSSNIGARYDVQWYQQLPGTAPKLLIFGNNNRPSGVPDRFSGSKSGTSASLAITGLQAEDEADYYCQSYDSSLSASVFGGGTKLTVLGSRGGGGSGGGGSGGGGSLEMAEVQLVQSGAEVKKPGASVKVSCKASGYTFTSYYMHWVRQAPGQGLEWMGIINPSGGSTSYAQKFQGRVTMTRDTSTSTVYMELSSLRSEDTAVYYCARSQWGGVLDYWGQGTLVTVSS
notes: also called ET140-172 scFv; ET140-22 scFv
binding result (mouse BCMA): no binding
